Reference: patent publication US20090325887A1 (BOARD OF TRUSTEES OF THE UNIVERSITY OF ILLINOIS, published 2009)

What was measured:
[1] = target: Cav1.2 channel (α1.2 subunit, with β2a); test: cell-based or functional assay
[2] = target: Cav3.1 channel (α3.1 subunit); test: cell-based or functional assay

Binder | inhibition of Cav1.2 current at 30 µM peptide [1] [%] | inhibition of Cav3.1 current at 30 µM peptide [2] [%]
VTLFFILA [γ1 TM1a peptide] | 15.5 | –
LGLLFAFV [γ6 TM1a V45FI47F peptide] | – | 26.3
LLILAVGV [γ6 TM1a SCR peptide] | 3.2 | –
FGFLVAIV [γ6 TM1a L41FL43F peptide] | – | 20.6
VGLTLAVL [γ6 TM1b A50L peptide] | – | 15.8
VGLFFALA [γ1 TM1a T12GI16A peptide] | 27.5 | –
VGATLAVL [γ6 TM1b peptide] | 6.7 | 5.5
LTTAGAFA [γ4 TM1a peptide] | -2.5 | -3.5
LTLLVAIV [γ6 TM1a G42T peptide] | – | 16.4
